In patent publication US20250186614A1, “COMPACT DRUG RESPONSIVE DOMAINS FOR REGULATION OF FUNCTION/ABUNDANCE AND DELIVERY OF POLYPEPTIDE PAYLOADS” (OBSIDIAN THERAPEUTICS, INC., priority 2022, published 2025):

B1: FKBP-138: FKBP13 DRD Q72R, Q84E, A117W, G124R; SEQ ID NO: 88 (protein)
chain: HCPIKSRKGDVLHMHYTGKLEDGTEFDSSLPRNQPFVFSLGTGEVIKGWDQGLLGMCEGEKRKLVIPSELGYGERGWPPKIPGRATLVFEVELLKIER
modifications: Description of sequence: FKBP13-AcGFP-mCherry Fusion; Construct Name: FKBP-138; FKBP13 DRD in Construct : FKBP13 (mutated to match FKBP12 active site Q72R Q84E A117W) (DRD G124R)
B2: FKBP-140: FKBP13 DRD Q72R, Q84E, A117W, K135Y; SEQ ID NO: 90 (protein)
chain: HCPIKSRKGDVLHMHYTGKLEDGTEFDSSLPRNQPFVFSLGTGEVIKGWDQGLLGMCEGEKRKLVIPSELGYGERGWPPKIPGGATLVFEVELLYIER
modifications: Description of sequence: FKBP13-AcGFP-mCherry Fusion; Construct Name: FKBP-140; FKBP13 DRD in Construct : FKBP13 (mutated to match FKBP12 active site Q72R Q84E A117W) (DRD K135Y)
B3: FKBP-147: FKBP13 DRD Q72R, Q84E, A117H, T64R, S108G, E137F; SEQ ID NO: 97 (protein)
chain: HCPIKSRKGDVLHMHYTGKLEDGREFDSSLPRNQPFVFSLGTGEVIKGWDQGLLGMCEGEKRKLVIPGELGYGERGHPPKIPGGATLVFEVELLKIFR
modifications: Description of sequence: FKBP13-AcGFP-mCherry Fusion; Construct Name: FKBP-147; FKBP13 DRD in Construct : FKBP13 (mutated to match FKBP12 active site Q72R Q84E A117H) (DRD T64R S108G E137F)
B4: FKBP-148: FKBP13 DRD Q72R, Q84E, A117H, D62N, D67N, D90N, M96G, E130K; SEQ ID NO: 98 (protein)
chain: HCPIKSRKGDVLHMHYTGKLENGTEFNSSLPRNQPFVFSLGTGEVIKGWNQGLLGGCEGEKRKLVIPSELGYGERGHPPKIPGGATLVFKVELLKIER
modifications: Description of sequence: FKBP13-AcGFP-mCherry Fusion; Construct Name: FKBP-148; FKBP13 DRD in Construct : FKBP13 (mutated to match FKBP12 active site Q72R Q84E A117H) (DRD D62N D67N D90N M96G E130K)
B5: FKBP-141: FKBP13 DRD Q72R, Q84E, A117R, L52R; SEQ ID NO: 91 (protein)
chain: HCPIKSRKGDVRHMHYTGKLEDGTEFDSSLPRNQPFVFSLGTGEVIKGWDQGLLGMCEGEKRKLVIPSELGYGERGRPPKIPGGATLVFEVELLKIER
modifications: Description of sequence: FKBP13-AcGFP-mCherry Fusion; Construct Name: FKBP-141; FKBP13 DRD in Construct : FKBP13 (mutated to match FKBP12 active site Q72R Q84E A117R (DRD L52R))
B6: FKBP-144: FKBP13 DRD Q72R, Q84E, A117H, D50R, E98M; SEQ ID NO: 94 (protein)
chain: HCPIKSRKGRVLHMHYTGKLEDGTEFDSSLPRNQPFVFSLGTGEVIKGWDQGLLGMCMGEKRKLVIPSELGYGERGHPPKIPGGATLVFEVELLKIER
modifications: Description of sequence: FKBP13-AcGFP-mCherry Fusion; Construct Name: FKBP-144; FKBP13 DRD in Construct : FKBP13 (mutated to match FKBP12 active site Q72R Q84E A117H) (DRD D50R E98M)
B7: FKBP-143: FKBP13 DRD Q72R, Q84G, A117H, P43R; SEQ ID NO: 93 (protein)
chain: HCRIKSRKGDVLHMHYTGKLEDGTEFDSSLPRNQPFVFSLGTGGVIKGWDQGLLGMCEGEKRKLVIPSELGYGERGHPPKIPGGATLVFEVELLKIER
modifications: Description of sequence: FKBP13-AcGFP-mCherry Fusion; Construct Name: FKBP-143; FKBP13 DRD in Construct : FKBP13 (mutated to match FKBP12 active site Q72R Q84G A117H) (DRD P43R)
B8: FKBP-146: FKBP13 DRD Q72R, Q84E, A117H, L104S, I136L; SEQ ID NO: 96 (protein)
chain: HCPIKSRKGDVLHMHYTGKLEDGTEFDSSLPRNQPFVFSLGTGEVIKGWDQGLLGMCEGEKRKSVIPSELGYGERGHPPKIPGGATLVFEVELLKLER
modifications: Description of sequence: FKBP13-AcGFP-mCherry Fusion; Construct Name: FKBP-146; FKBP13 DRD in Construct : FKBP13 (mutated to match FKBP12 active site Q72R Q84E A117H) (DRD L104S I136L)
B9: FKBP-145: FKBP13 DRD Q72R, Q84E, A117H, H41S, E61D; SEQ ID NO: 95 (protein)
chain: SCPIKSRKGDVLHMHYTGKLDDGTEFDSSLPRNQPFVFSLGTGEVIKGWDQGLLGMCEGEKRKLVIPSELGYGERGHPPKIPGGATLVFEVELLKIER
modifications: Description of sequence: FKBP13-AcGFP-mCherry Fusion; Construct Name: FKBP-145; FKBP13 DRD in Construct : FKBP13 (mutated to match FKBP12 active site Q72R Q84E A117H) (DRD H41S E61D)
B10: FKBP-139: FKBP13 DRD Q72R, Q84E, A117W, E130R; SEQ ID NO: 89 (protein)
chain: HCPIKSRKGDVLHMHYTGKLEDGTEFDSSLPRNQPFVFSLGTGEVIKGWDQGLLGMCEGEKRKLVIPSELGYGERGWPPKIPGGATLVFRVELLKIER
modifications: Description of sequence: FKBP13-AcGFP-mCherry Fusion; Construct Name: FKBP-139; FKBP13 DRD in Construct : FKBP13 (mutated to match FKBP12 active site Q72R Q84E A117W) (DRD E130R)
B11: FKBP-142: FKBP13 DRD Q72R, Q84E, A117W, T64G; SEQ ID NO: 92 (protein)
chain: HCPIKSRKGDVLHMHYTGKLEDGGEFDSSLPRNQPFVFSLGTGEVIKGWDQGLLGMCEGEKRKLVIPSELGYGERGWPPKIPGGATLVFEVELLKIER
modifications: Description of sequence: FKBP13-AcGFP-mCherry Fusion; Construct Name: FKBP-142; FKBP13 DRD in Construct : FKBP13 (mutated to match FKBP12 active site Q72R Q84E A117W) (DRD T64G)

System: Jurkat cells
Test: Tacrolimus dose response of FKBP13-AcGFP-mCherry constructs stably transduced into Jurkat cells, GFP MFI by flow cytometry
Assay type: cell-based
Conditions: tacrolimus, Jurkat cells stably transduced; Table 6
Summary of the method: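 Jurkat E6-1 cells lentivirally transduced with FKBP13-AcGFP-mCherry constructs to 10-25% mCherry+ (day 5) were dosed with tacrolimus. GFP geometric MFI in mCherry+ cells was measured by flow cytometry and fitted to dose-response curves.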

Point of comparison: B7, “Fold Change” value 14.97. Against it:
- B1 — lower, 10.43
- B2 — higher, 28.70
- B3 — higher, 26.65
- B4 — lower, 1.09
- B5 — lower, 1.00
- B6 — lower, 1.24
- B8 — lower, 1.19
- B9 — lower, 11.05
- B10 — higher, 52.24
- B11 — higher, 33.42
